From article PMC10530651, “Mechanisms of Regulation of the CHRDL1 Gene by the TWIST2 and ADD1/SREBP1c Transcription Factors”
Positions count from the first letter of the chain named.

Assays:
TWIST1 [1] = biological target: T1, TWIST1 (Homo sapiens, UniProt Q15672 1-202); assay: EMSA; EMSA: 20 mM HEPES pH 7.9, 60 mM KCl, 1 mM MgCl2, 0.5 mM DTT, 10% glycerol, 10 µL with 1-3 µL TnT lysate; competitor at least 50x molar excess; 6% native gel, 0.5X TBE, 4 °C; binding temperature not stated; details: protein: ivt; tags: Myc; chain copies: 2; label: 32P as probe; blunt
TWIST2 [2] = biological target: T2, TWIST2 (Homo sapiens, UniProt Q8WVJ9 1-160); assay: EMSA; competition; EMSA: 20 mM HEPES pH 7.9, 60 mM KCl, 1 mM MgCl2, 0.5 mM DTT, 10% glycerol, 10 µL with 1-3 µL TnT lysate; competitor at least 50x molar excess; 6% native gel, 0.5X TBE, 4 °C; binding temperature not stated; details: protein: ivt; tags: N-terminal Myc; chain copies: 2; label: 32P as probe; blunt
T2 sequence: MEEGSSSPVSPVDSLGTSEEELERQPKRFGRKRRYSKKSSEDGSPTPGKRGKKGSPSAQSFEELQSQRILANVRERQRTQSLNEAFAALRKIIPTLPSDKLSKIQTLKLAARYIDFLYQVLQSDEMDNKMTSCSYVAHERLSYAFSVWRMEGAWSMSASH

ADD1/SREBP1c [3] = biological target: T3, ADD1/SREBP1c (rat, UniProt P56720-1 1-403); assay: as above; details: protein: ivt; tags: C-terminal Myc/His; chain copies: 2; label: 32P as probe; blunt
T3 sequence: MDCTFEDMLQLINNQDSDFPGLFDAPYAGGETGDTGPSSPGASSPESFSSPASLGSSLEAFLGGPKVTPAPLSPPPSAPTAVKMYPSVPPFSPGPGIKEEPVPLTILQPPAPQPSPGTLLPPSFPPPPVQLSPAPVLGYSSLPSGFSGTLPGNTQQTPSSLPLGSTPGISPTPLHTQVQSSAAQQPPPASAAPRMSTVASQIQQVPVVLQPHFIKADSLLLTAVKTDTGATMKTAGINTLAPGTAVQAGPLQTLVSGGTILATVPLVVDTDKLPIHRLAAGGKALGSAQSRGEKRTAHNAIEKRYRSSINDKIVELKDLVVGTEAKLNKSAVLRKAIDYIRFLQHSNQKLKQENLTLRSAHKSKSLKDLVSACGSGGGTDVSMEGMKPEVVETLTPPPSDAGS

TWIST2 [4] = biological target: T2, TWIST2; assay: EMSA; EMSA: 20 mM HEPES pH 7.9, 60 mM KCl, 1 mM MgCl2, 0.5 mM DTT, 10% glycerol, 10 µL with 1-3 µL TnT lysate; competitor at least 50x molar excess; 6% native gel, 0.5X TBE, 4 °C; binding temperature not stated; details: protein: ivt; tags: N-terminal Myc; chain copies: 2; label: 32P as probe; blunt
ADD1/SREBP1c [5] = biological target: T3, ADD1/SREBP1c; assay: as above; details: protein: ivt; tags: C-terminal Myc/His; chain copies: 2; label: 32P as probe; blunt
TWIST2 [6] = biological target: T2, TWIST2; assay: competition; vs labeled CH2700EA; EMSA: 20 mM HEPES pH 7.9, 60 mM KCl, 1 mM MgCl2, 0.5 mM DTT, 10% glycerol, 10 µL with 1-3 µL TnT lysate; competitor at least 50x molar excess; 6% native gel, 0.5X TBE, 4 °C; binding temperature not stated; details: protein: ivt; tags: N-terminal Myc; chain copies: 2; blunt
ADD1/SREBP1c [7] = biological target: T3, ADD1/SREBP1c; assay: as above; details: protein: ivt; tags: C-terminal Myc/His; chain copies: 2; blunt
TWIST2 [8] = biological target: T2, TWIST2; assay: competition; vs labeled probe #5; EMSA: 20 mM HEPES pH 7.9, 60 mM KCl, 1 mM MgCl2, 0.5 mM DTT, 10% glycerol, 10 µL with 1-3 µL TnT lysate; competitor at least 50x molar excess; 6% native gel, 0.5X TBE, 4 °C; binding temperature not stated; details: protein: ivt; tags: N-terminal Myc; chain copies: 2; blunt
TWIST1 [9] = biological target: T1, TWIST1; assay: as above; details: protein: ivt; tags: Myc; chain copies: 2; blunt

B1: CH2600TWI (dsDNA)
DNA 1: TATATACACAGGCAAATGAGTGCATATAAA
DNA 2: TTTATATGCACTCATTTGCCTGTGTATATA
B1: no binding (TWIST1 [1]); no binding (TWIST2 [2]); no binding (ADD1/SREBP1c [3]).

B2: CH2700EA (dsDNA)
DNA 1: TGGTGGTGGTCACATGAATATACACATGCGATAAAATT
DNA 2: AATTTTATCGCATGTGTATATTCATGTGACCACCACCA
B2: binds (TWIST2 [4]); binds (ADD1/SREBP1c [5]).

B3: CH2700EMAW (dsDNA)
DNA 1: B2 DNA 1 with A12G, T15C
DNA 2: B2 DNA 2 with A24G, T27C
B3: binds (TWIST2 [6]); binds (ADD1/SREBP1c [7]).

B4: CH2700EWAM (dsDNA)
DNA 1: B2 DNA 1 with A24G, T27C
DNA 2: B2 DNA 2 with A12G, T15C
B4: binds (ADD1/SREBP1c [7]).

B5: SP1 oligo (dsDNA)
DNA 1: ATTCGATCGGGGCGGGGCGAGC
DNA 2: GCTCGCCCCGCCCCGATCGAAT
B5: no binding (TWIST2 [8]); no binding (TWIST1 [9]).
